Assay results from patent US20200353078A1 (AstraZeneca / MedImmune, published 2020).
Numbering of substitutions follows the chain as printed.

T1: Human IL-33 (Axxora/Adipogen AG-40B-0038) (human, UniProt O95760 112-270, limits assumed)
T1 sequence (looked up): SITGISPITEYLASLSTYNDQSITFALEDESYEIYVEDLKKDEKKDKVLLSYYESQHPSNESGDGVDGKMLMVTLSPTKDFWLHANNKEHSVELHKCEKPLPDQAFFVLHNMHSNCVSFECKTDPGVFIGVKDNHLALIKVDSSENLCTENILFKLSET

T2: His10/Avi Human IL33-01 (human)
T2 chain: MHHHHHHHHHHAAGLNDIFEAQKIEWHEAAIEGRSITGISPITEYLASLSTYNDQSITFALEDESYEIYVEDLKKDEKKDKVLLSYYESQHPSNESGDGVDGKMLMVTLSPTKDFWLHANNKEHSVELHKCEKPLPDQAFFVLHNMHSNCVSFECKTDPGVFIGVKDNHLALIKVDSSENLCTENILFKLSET

T3: Full-length human IL-33 (amino acids 1-270), HEK293-EBNA cell lysate (human, UniProt O95760 1-270)
T3 sequence (looked up): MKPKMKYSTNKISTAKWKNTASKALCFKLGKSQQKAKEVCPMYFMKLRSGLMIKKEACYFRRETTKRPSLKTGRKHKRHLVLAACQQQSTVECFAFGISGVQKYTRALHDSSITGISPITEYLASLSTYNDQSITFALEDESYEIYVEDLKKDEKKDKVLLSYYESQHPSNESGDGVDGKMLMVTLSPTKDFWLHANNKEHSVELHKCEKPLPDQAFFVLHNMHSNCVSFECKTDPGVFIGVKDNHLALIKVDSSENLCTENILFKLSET

T4: Recombinant human IL-33 (construct not named in the example) (human, UniProt O95760 112-270, limits assumed)
T4 construct: also called Recombinant, enzymatically biotinylated human IL-33 (produced in-house); IL-33 (200 nM)
T4 sequence (looked up): T1 sequence (looked up)

T5: His10/Avi Cyno IL-33 (cynomolgus monkey)
T5 construct: also called Cynomolgus 10His Avitag IL-33; biotinylated His Avi cynomolgus IL-33
T5 chain: T2 chain with E77K, N94S, H118Q, M146R, H147S, S148F, S177Y, C182G, T183S, T193I

B1: IL330377 IgG1 (antibody, V domains shown)
VH: EVQLLESGGGLVQPGGSLRLSCAASGFTFSSYAMSWVRQAPGKGLEWVSASDMLYGSTYYADSVKGRFTISRDNSKNTLYLQMNSLRAEDTAVYYCSQNILGYFDSWGRGTLVTVSS
VL: SYVLTQPPSVSVSPGQTARITCSGDALPKQYAHWYQQKPGQAPALVIYKDTERPSGIPERFSGSSSGTTVTLTISGVQAEDEADYYCQSADSTGYHRVFGGGTKVTVL
B2: IL330398 IgG1 (antibody, V domains shown)
VH: EVQLLESGGGLVQPGGSLRLSCAASGFTFSSYAMSWVRQAPGKGLEWVSASTPWQGSTYYADSVKGRFTISRDNSKNTLYLQMNSLRAEDTAVYYCVRWYWGWIDSWGRGTLVTVSS
VL: B1 VL with Q88L, A90S, S92A, T93S, Y95A, H96S
B3: IL330180 IgG (antibody, V domains shown)
VH: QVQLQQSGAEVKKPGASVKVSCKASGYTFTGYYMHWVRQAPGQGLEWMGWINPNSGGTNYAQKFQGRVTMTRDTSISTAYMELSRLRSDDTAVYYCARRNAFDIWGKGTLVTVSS
VL: QPVLTQPPSVSEAPRQRVTISCSGSSSNIGNNAVNWYQQLPGTAPKLLIYRNNQRPSGVPDRFSGSKSGTSASLAISGLRSEDEADYYCAAWDDSLSGWVFGGGTKVNVL
B4: IL330377_fgl IgG1 (antibody, V domains shown)
VH: B1 VH
VL: B1 VL with V3E, T5M, A44V, V105L
B5: IL330388_fgl IgG1 (antibody, V domains shown)
VH: B2 VH
VL: B1 VL with V3E, T5M, A44V, Q88M, A90S, S92P, T93S, Y95A, H96S, V105L
B6: IL330396_fgl IgG1 (antibody, V domains shown)
VH: B2 VH
VL: B1 VL with V3E, T5M, A44V, Q88M, A90S, S92D, Y95A, H96S, V105L
B7: IL330398_fgl IgG1 (antibody, V domains shown)
VH: B2 VH
VL: B1 VL with V3E, T5M, A44V, Q88L, A90S, S92A, T93S, Y95A, H96S, V105L
B8: 33_640237 IgG1 (antibody, V domains shown)
VH: EVQLLESGGGLVQPGGSLRLSCAASGFTFSSYAMSWVRQAPGKGLEWVSGIADDFTSTYYADPVKGRFTISRDNSKNTLYLQMNSLRAEDTAVYYCARDLWMMNYAGGLRYPFGYWGQGTTVTVSS
VL: SYVLTQPPSVSVSPGQTASITCSGERMGDKYAAWYQQKPGQSPVLVIYRDTKRPSGIPERFSGSNSGNTATLTISGTQAIDEADYYCGVLKQDTGVFGGGTKVTVL
notes: IgG1; also called ZZ1M37-E06
B9: 33_640082-6 IgG1 (antibody, V domains shown)
VH: EVQLLESGGGLVQPGGSLRLSCAASGFTFSSYAMSWVRQAPGKGLEWVSGISGIDTSTYYADSVKGRFTISRDNSKNTLYLQMNSLRAEDTAVYYCARQKFMQLWGGGLRYPFGYWGQGTMVTVSS
VL: B8 VL with I80M
notes: IgG1
B10: 33_640082-7 IgG1 (antibody, V domains shown)
VH: B9 VH with G53A, T56Q
VL: B8 VL with I80M
notes: IgG1
B11: 33_640084-2 IgG1 (antibody, V domains shown)
VH: B9 VH with T28A, G50A, I54S, D55G, T56G
VL: B8 VL with I80M, G88Q, L90W, K91R, Q92D, T94S, G95P, V96I
notes: IgG1
B12: 33_640086-6 IgG1 (antibody, V domains shown)
VH: B9 VH with Q99D
VL: B8 VL with I80M, G88E, L90K, K91V, Q92K
notes: IgG1
B13: 33_640076-4 IgG1 (antibody, V domains shown)
VH: B9 VH with G53A, T56Q, Q99D, K100L, F101W, Q103E, L104N, G106V
VL: B8 VL with I80M, G88E, L90K, Q92S
notes: IgG1
B14: 33_640001 Fab (Fab, V domains shown)
VH: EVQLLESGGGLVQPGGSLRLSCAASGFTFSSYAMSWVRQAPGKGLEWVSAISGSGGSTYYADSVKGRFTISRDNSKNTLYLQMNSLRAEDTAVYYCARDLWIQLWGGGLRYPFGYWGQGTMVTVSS
VL: B8 VL with R49Q, I80M, G88Q, L90W, K91D, Q92S, D93S
notes: Fab made by papain cleavage of full length IgG1
B15: 33_640050 Fab (Fab, V domains shown)
VH: B9 VH with G50A, I54S, D55G, T56G, A97P, Q99H
VL: B8 VL with R49Q, I80M, G88Q, L90W, K91D, Q92S, D93S
notes: as for B14
B16: 33_640087-7B Fab (Fab, V domains shown)
VH: B9 VH with G53A, T56Q
VL: B8 VL with R26G, I80M, L90I, K91Q, Q92D, D93N, V103L
notes: as for B14
B17: 33_640081 IgG1 (antibody, V domains shown)
VH: B9 VH with L11S, S35N, G50A, I54S, D55G, T56G, Y59H, A97G, Q99A, F113L
VL: SYVLTQPPSVSVSPGQTASITCSGERMGDKYAAWYQQKPGQSPVLVIYQDTKRPSGIPERFSGSNSGNTATLTISGTQATDEADYYCQVWAADDTGVFGGGTKVTVL
notes: IgG1; also called ZZ1JMB-H05

These binders were tested against T1, Human IL-33 (Axxora/Adipogen …) (assay: cell-based or functional assay).
For B1, the “Huvec IL-6 production, maximum inhibition” value was roughly 70%.
For B2, the “Huvec IL-6 production, maximum inhibition” value was roughly 70%.

Biological target: T1, Human IL-33 (Axxora/Adipogen …)
Test: cell-based or functional assay
Remark: another data set of the same source
B3 was tested, and the “IC50, Mast cell IL-6 production” value was 22 nM.

Biological target: T1, Human IL-33 (Axxora/Adipogen …)
Test: cell-based or functional assay
Remark: another data set of the same source
In the case of B4, the “IC50, Huvec IL-6 production” value is reported as 6.6 nM and the “IC50, Mast cell IL-6 production” value is reported as 1.3 nM.
In the case of B5, the “IC50, Huvec IL-6 production” value is reported as 2.1 nM and the “IC50, Mast cell IL-6 production” value is reported as 1.2 nM.
B6 was tested, and the “IC50, Huvec IL-6 production” value was 2.8 nM and the “IC50, Mast cell IL-6 production” value was 1.5 nM.
B7 was tested, and the “IC50, Huvec IL-6 production” value was 1.5 nM and the “IC50, Mast cell IL-6 production” value was 0.9 nM.

Biological target: T2, His10/Avi Human IL33-01
Test: cell-based or functional assay
In the case of B8, the “IC50, Huvec IL-8 assay vs. His Avi IL-33” value is reported as 0.056 nM.
For B9, the “IC50, Huvec IL-8 assay vs. His Avi IL-33” value was 0.03 nM.
With B10 the “IC50, Huvec IL-8 assay vs. His Avi IL-33” value was 0.031 nM.
For B11, the “IC50, Huvec IL-8 assay vs. His Avi IL-33” value was 0.036 nM.
With B12 the “IC50, Huvec IL-8 assay vs. His Avi IL-33” value was 0.026 nM.
With B13 the “IC50, Huvec IL-8 assay vs. His Avi IL-33” value was 0.032 nM.

Each binder was assayed against T3, Full-length human IL-33 (amino acids …) (assay: cell-based or functional assay).
For B8, the “IC50, Huvec IL-8 assay vs. full length IL-33 cell lysate” value was 0.091 nM.
B9 was tested, and the “IC50, Huvec IL-8 assay vs. full length IL-33 cell lysate” value was 0.097 nM.
In the case of B10, the “IC50, Huvec IL-8 assay vs. full length IL-33 cell lysate” value is reported as 0.095 nM.
In the case of B11, the “IC50, Huvec IL-8 assay vs. full length IL-33 cell lysate” value is reported as 0.132 nM.
For B12, the “IC50, Huvec IL-8 assay vs. full length IL-33 cell lysate” value was 0.081 nM.
With B13 the “IC50, Huvec IL-8 assay vs. full length IL-33 cell lysate” value was 0.095 nM.

What follows are binders tested against T4, Recombinant human IL-33 (construct not …) (assay: SPR Biacore T100, 25 C, biotinylated human IL-33 on streptavidin C1 chip, Fab as analyte).
Procedure: Fab fragments were generated by papain cleavage from full length IgG1 and purified by SEC. […] Streptavidin was covalently immobilised to a C1 chip surface using standard amine coupling techniques at a concentration of […] in 10 mM Sodium acetate pH 4.5. […] Recombinant, enzymatically biotinylated human IL-33 (produced in-house) was titrated onto the streptavidin chip surface at […] in HBS-EP+ buffer to enable ˜30 RUs of Fab binding at saturation (Rmax). This low level of analyte binding ensured minimal mass transport effects.
The IL-33 Fab was serially diluted from 5 nM to 78 pM in HBS-EP+ buffer and flowed over the chip at 50 μl/min, with 3 minutes association and up to 30 minutes dissociation. Multiple buffer only injections were made under the same conditions to allow for double reference subtraction of the final sensorgram sets, which were analysed using the BiaEval software (version 2.0.1). The chip surface was fully regenerated with pulses of 3M MgCl₂.
B14 was tested, and the Kd was 3.34 nM, the koff was 0.0326 s⁻¹ and the kon was 9.76e+06 M⁻¹ s⁻¹.
In the case of B15, the Kd is reported as 0.0034 nM, the koff is reported as 0.000105 s⁻¹ and the kon is reported as 3.08e+07 M⁻¹ s⁻¹.
With B16 the Kd was 0.00043 nM, the koff was 9.42e-06 s⁻¹ and the kon was 2.2e+07 M⁻¹ s⁻¹.

Biological target: T2, His10/Avi Human IL33-01
Test: HTRF epitope competition, IgG titrated; competitor DyLight labelled 33_640117 IgG; 1 hour
Procedure: (§1) As the epitope competition assay utilising 33_640027 reached its limit of sensitivity, an assay using 33_640117 was used for testing purified scFv samples. The assay was essentially as described for the 33v20064 competition assay with the following modifications: 2.5 nM DyLight labelled 33_640117 was prepared and 2.5 microlitres added to the assay plates. This was followed by the addition of 2.5 microlitres of a solution containing 0.12 nM biotinylated human IL-33-01 combined with 0.75 nM streptavidin cryptate detection (Cisbio International, 610SAKLB) for the human assay or a solution containing 0.24 nM biotinylated cynomolgus IL-33 combined with 1.5 nM streptavidin cryptate detection (Cisbio International, 610SAKLB) for the cynomolgus assay. Fluorescence was read after one hour and overnight incubation.
(§2) The ability of anti-IL-33 antibodies to inhibit the binding of biotinylated His Avi human IL-33 or cynomolgus His Avi IL-33 to the DyLight labelled 33_640117 IgG was assessed in a biochemical HTRF® (Homogeneous Time-Resolved Fluorescence, Cisbio International) competition assays as described above.
With B8 the IC50 was 0.1 nM.
B9 gave an IC50 of 0.1 nM.
In the case of B10, the IC50 is reported as 0.1 nM.
With B11 the IC50 was 0.3 nM.
In the case of B12, the IC50 is reported as 0.1 nM.
B13 showed an IC50 of 0.1 nM.
In the case of B17, the IC50 is reported as 0.3 nM.

Biological target: T5, His10/Avi Cyno IL-33
Test: as above
Procedure: as §1, §2
B8 gave an IC50 of 1.8 nM.
B9 gave an IC50 of 0.2 nM.
In the case of B10, the IC50 is reported as 0.2 nM.
Work on B11 yielded an IC50 of 0.8 nM.
B12 showed an IC50 of 0.2 nM.
In the case of B13, the IC50 is reported as 0.6 nM.
B17 gave an IC50 of 10 nM.

Biological target: T2, His10/Avi Human IL33-01
Test: HTRF epitope competition, IgG titrated; competitor DyLight labelled 33_640117 IgG; overnight
Procedure: as §1, §2
With B8 the IC50 was 0.1 nM.
B9 gave an IC50 of 0.1 nM.
For B10, the IC50 was 0.1 nM.
B11 showed an IC50 of 0.3 nM.
With B12 the IC50 was 0.1 nM.
In the case of B13, the IC50 is reported as 0.1 nM.
B17 showed an IC50 of 0.6 nM.
